Values quoted from earlier work in paper PMC9079180.

Biological target: tau (Homo sapiens)

Hsp70, sequence (P0A6Z0 2-638): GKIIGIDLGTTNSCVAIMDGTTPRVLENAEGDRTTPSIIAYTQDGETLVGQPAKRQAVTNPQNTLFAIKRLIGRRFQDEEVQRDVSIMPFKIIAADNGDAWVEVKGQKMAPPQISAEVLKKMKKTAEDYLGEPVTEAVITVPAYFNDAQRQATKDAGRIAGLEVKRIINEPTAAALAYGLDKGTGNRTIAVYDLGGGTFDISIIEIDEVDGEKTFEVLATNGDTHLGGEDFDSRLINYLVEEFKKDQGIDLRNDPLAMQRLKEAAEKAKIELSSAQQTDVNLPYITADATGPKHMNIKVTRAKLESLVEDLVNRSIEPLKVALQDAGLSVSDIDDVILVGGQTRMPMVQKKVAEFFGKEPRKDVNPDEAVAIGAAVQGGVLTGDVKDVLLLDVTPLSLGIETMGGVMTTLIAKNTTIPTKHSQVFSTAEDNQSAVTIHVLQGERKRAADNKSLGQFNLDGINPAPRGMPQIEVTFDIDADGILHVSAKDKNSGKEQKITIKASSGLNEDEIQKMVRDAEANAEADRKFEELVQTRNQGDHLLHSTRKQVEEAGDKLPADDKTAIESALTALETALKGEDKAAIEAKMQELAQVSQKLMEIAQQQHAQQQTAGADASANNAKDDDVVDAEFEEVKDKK

For Hsp70 (from UniProt P0A6Z0), the Kd is listed as 400 nM.
